# Assay: soluble on expression in E. coli; label from the status in PepcDB or PDB records
row,Sequence,soluble on expression in E. coli
1,MRKVTAAVMASTLAFSFLSHAAEVVTSDNWHPGDGATQRSAQNHMFDGISLTEHQRQQMRDLMQQARHEQPPVNVSEMETMHRLVTAEKFDESAVRAQAEKMAQEQVARQVEMARVRNQMYRLLTPEQQAVLNEKHQQRMEQLRDVAQWQKSSSLKLLSSSNSRSQLEHHHHHH,not soluble
2,NTIQQLMMILNSASDQPSENLISYFNNCTVNPKESILKRVKDIGYIFKEKFAKAVGAGCVAIGSQRYKLGVRLYYRVMESMLKSEEERLSIQNFSKLLNDNIFHMSLLACALEVVMATYSRSTSQNLDSGTDLSFPWILNVLNLKAFDFYKVIESFIKAEGNLTREMIKHLERCEHRIMESLAWLSDSPLFDLIKQSKTREGKSTSLSLFYKKVYRLAYLRLNTLCERLLSEHPELEHIIWTLFQHTLQNEYELMRDRHLDQIMMCSMYGICKVKNIDLKFKIIVTAYKDLPHAVQETFKRVLIKEEEYDSIIVFYNSVFMQRLKTNILQYASTRPPTLSPIPHI,soluble
3,MSLKLIATDLNGTLLHQDQGFNQPLLKETLSQLKQRGIRLVLASGNQYAHLKEVFREIWSTDLAVIAENGASIYLGDELVFDGSLTPQQVRLFLSATAQDEFLQNAYLILVGAQGSYTRVGAPAPLIAAAEKFYDHLQQVMSLETVTDRIKKISVSTAPEQAAALVQHLNQRFTGQLRAHDSGYGVIDVVSLHVGKLPAVQWLAQHWQIPATEIVAFGDGANDVPLLNYAGQSYAMKNAPVDIQAQAKHVTVWDNDRDGVLRTIATLLVADEGHHHHHH,soluble
4,MGSDKIHHHHHHMKNLQVVEKEFSSLPIIDISALVSGKGNLYSAASQIRQACRESGFFYIIGHGVDENLQQRLEELSRQFFAQDLETKLKIRMALAGIAWRGYFPVGGELTSGKPDLKEGIYFGTELPDEHPLVQAGTPMHGANLFPANMPQFGETVLEYIEAMTKLGHTLMTGIAMSLGLEESYFADRYTSDPLVLFRIFNYPPNLSPSDGNPIWGVGEHTDYGVLTILKQDDSGGLQVKSKSGWVAAPPVPGSFVCNIGDMLDKMTGGFYRSTPHRVQNQSQNHRLSFPFFFDPNFDVEVKPIELDNYSSE,not soluble
5,MEIMLTYKTFKILGREILIGVVWEEKIQGIAYSLDGLEFLKDQLSRVTSHLKSRGVKVNLLEEKSRYPDLVFDVLKGKIGNEKGFEELSLEGLTRFEIKVYSWLVKNVKRGEVITYGKVAKALKTSPIAVGGAMKRNPYPIIVPCHRVVGKNNPWLYTPKPSYKKFLLEVEGWIS,soluble
6,MSIYTLGIDVGSTASKCIILKDGKEIVAKSLVAVGTGTSGPARSISEVLENAHMKKEDMAFTLATGYGRNSLEGIADKQMSELSCHAMGASFIWPNVHTVIDIGGQDVKVIHVENGTMTNFQMNDKCAAGTGRFLDVMANILEVKVSDLAELGAKSTKRVAISSTCTVFAESEVISQLSKGTDKIDIIAGIHRSVASRVIGLANRVGIVKDVVMTGGVAQNYGVRGALEEGLGVEIKTSPLAQYNGALGAALYAYKKAAKSAWSHPQFEK,soluble
7,MLNNDVLRSLRYLLDLPDAHLAELAARFGEQVEADLLEAYLKKEDEDGFQACPDRYLARCLDGLIIQRRGRDESRPLPPLELPLSNNMILKKLRVAFELKEEDLHAILDSVDFPVSKPELSALFRKPGHSNYRTCGDQLLRNFLKGLTLRVRG,not soluble
8,MKRCDLHIHTVPSVSDREFTYDKEILSDYVAKTKLDVIAITNHNLFDYAQFQEIKDILPQIVVLPGIEVDLEDGHILVIANNDDRTLFDFNSKCEEIKNLIKSEADNITYDRFVGIFGDLSKYLLIPHYEKEPKLRKDILEKLGRNIIAGEVSSVKKFIYMEKERAGLTPVYFSDFRIEKGITPDKYPVSHTFFDVDEVNIKTLKLCLMDKTKVSLTSEEGIKLFPIFPNGQKLSTGLNIMYGKRSTGKTFTLDAIASRFNGKAKYIKQFELLNTNRNDSEQFESDMKVRQEESAENYLREFSDVVTDMLKTCSSDEDDIKLQKYLDAVKSSAQQSNVNDVFSKSKLFNESDFKERSCDEIKELINATQTLLESQLYKKIINKHLSEISLKALLKDLIELYLEGNAANQYVKEVNNMIKMVKESLQLKSAAPRIPDIDLYQYFINKKKREVFAQIAMSVKKSRTISTEKAGHFTVSVSARPFMNATDLKTVRLTQVSLTNAFKKYENPVQYLNELKAAGVEINRIYKLFAAIDYKILNSSGLPVSGGERSEFNFLQKIKDAILCDILIIDEPESSFDNIFLKNEVNKFIKEMAENMPVIISTHNNTIGSSIKPDYILYTEKKMEADGAHFKIYSGYPTAKELRDVDGNTIENYEITLNSLEAGEQAYSERKDIYETLKN,not soluble
9,MGSDKIHHHHHHMLQAQLKPANLVVTCNQTHSTMAQTDAPSTPAKPVIHAKQTAESGSSAQLRHLSRYLVRNLGMLNAAFGDLPLSPVQAHALFEIGKQPLTIKELACKLSIDKSNASRAIKHLIDKNLAQSQIHPRDSRCLVVQLTPAGKKLLLKLDTQQNQLFQEILAQLTPAQTSQIEEALMLYNQAVHNAKHQSGCHIRQATAQDDAAIAKVIRDVSAEYGLTADKGYSVADPTLDCLSQIYSQAGANYWIIELDGRILGGAGIAPLANNEGVCELQKMYFMPEIRGKGLATRVALMALDFARETGYQSCYLETTAALNEAVKLYEKLGFVHLSAPLGNTGHDACEMPMLLELNQ,not soluble
10,MGHHHHHHSHMEDLLDLDEELRYSLATSRAKMGRRAQQESAQAENHLNGKNSSLTLTGETSSAKLPRCRQGGWAGDSVKASNGTQTGKQQLDLNACYHKTHHRNLGLASLEEADIPIIPDLEEVQEEDFVLQVAAPPSIQIKRVMTYRDLDNDLMKYSAIQTLDGEIDLKLLTKVLAPEHEVREDDVGWDWDHLFTEVSSEVLTEWDPLQTEKEDPAGQARHT,soluble
11,MGSDKIHHHHHHMTNENELLYSSELQLSALNEAIEATPDNPYLYFKRATYFYNINNFRIAQNDIQKALRMDESVAAYWLLSAQINNELKNVDRAIEEGQKALQLGNAEPILYALLANCLLEKNDTISANQYIGKLTAIAPQMAELKYVQAKKLLIGKDTSHSFLKFRECIQNNPQYIEAYIDLMSLYYKKQMYDSIMPLLIKAKRMRPNNPTLFLYEGKFYETINKNQVALAAYKEGLLCDPQAIELYKPLSDYYGRQGNYKESMYYLSKWIEKNSSDAQSIIKMGNYALKQNDEAGAVTYYKNSLSIDSSNTYLKKEIERIEKHIRYVAQDTTN,not soluble
12,MQIKTYKIKDICDIKRGRVISKLYIKNNPGEFPVYSSATVNNGEIGRIKDCDLKGEYVTWTTDGAQAGSVFYRNGQFNATNVCGILKVNNDEIYPKFLAYALRLKAPKFVNYACPIPKLMQGTLAEIELDFTSKKIQEKIATILDTFTELSAELSAELSAELSAELRERKKQYVFYSDYLLNPKNWK,soluble
13,MYVLIGGAGLVGLTLAQKLVELGHTVAIIDVDHTACRYAREQVGAMAFEGSAVSTEVLLEAGIRKADALAAVLRNDALNLAMVMLAKHYGVSHILSRMRHADFAQPLRLAGANHVISTVELSVSTMVNAIEYPQVESMMHFEQGQIEVLKISIPNSCYVANRSLAEIAQDSRFPSGSLIIGYQPHPHEDLVIPNGSTVLESGSTILIATKPGSLHQVIDFIEGCKLEHHHHHH,not soluble
14,MKGFGMFRFRRTFVPQIDMRNCGVAALASVAKYYGSDYSLAHLRELAKTNKEGTTALGLVEAAKKIGFETRAIKAEMSLFEMEDVPYPFIAHVNKDGKLQHYYVIYKSTKDYLIIGDPDPSVKVTKMTKERFEKEWTGVTLFMGPEPS,not soluble
15,STLEIAGLVRKNLVQFGVGEKNGSVRWVMNALGVKDDWLLVPSHAYKFEKDYEMMEFYFNRGGTYYSISAGNVVIQSLDVGFQDVVLMKVPTIPKFRDITQHFIKKGDVPRALNRLATLVTTVNGTPMLISEGPLKMEEKATYVHKKNDGTTVDLTVDQAWRGKGEGLPGMCGGALVSSNQSIQNAILGIHVAGGNSILVAKLVTQEMFQNIDKKIESQ,soluble
16,MEEDNQSPSPSESSIKTDYDAKIRVLYSTKNNKSEEESVFAHRLVLSTFSPLFQQLLQDATSSSTSTTSSTSSDDVISISLDLTAFPNALAAFKVILEALYTGDIKMKSVAANEVLAVSRHCQISSLEPKIMSAVAPLPLNLANILNCSQSVPLNSNPFLQYTSPPIQNYLSSMISLWSNPFFSALFGNTTGTPSLPFSPQSDTENSRTQSEGSSPRANSTSTPPTTDLEKIVPNDDKEGWCRNKKYIEKVDGGFMCTVCRKIYGRYNSVSYHVTIYHRNPPIKCEENGCNFSTREARYIHFHKYYRHHIPLPENIDLGSRKCPFCRHVSKSPAMLEKHIARHETDGTSGGTPGALKRAQSKKKIVPTMTTDVIDPNVSSIFAPTNPAGNIPIQCSLCPFSTHSTDLLFIHLAMQHAQELAQCSGLLADNSSETSTSSSSDGEPMITDIDLDVKPLIDQSLMLHLNTPLSN,not soluble
17,SLQDFWCSTLVKGVIYGSYSVSEMFPKNFTNCTWTLENPDPTKYSIYLKFSKKDLSCSNFSLLAYQFDHFSHEKIKDLLRKNHSIMQLCNSKNAFVFLQYDKNFIQIRRVFPTNFPGLQKKGEEDQKSFFEFLVLNKVSPSQFGCHVLCTWLESCLKSENGRTESCGIMYTKCTCPQHLGEWGIDDQSLILLNNVVLPLNEQTEGCLTQELQTTQVCNLTREAKRPPKEEFGMMGDHTIKSQRPRSVHEKRVPQEQADAAKFMAQTG,soluble
18,MAHHHHHHMRKKMKTLHLTGKKNFLFQNMQLRLYKEAPPKVFNKKSSHSSLWIQRQITDRYVLKAKNDNYRSRAAYKLIELDNKYMFLKKNKTILDIGCYPGSWCQVILERTKNYSNEIIGIDKKIMDPLPNIHFIHAEIGGAKDNPNDSNLVDVKLREILQGKKVDIILSDAAVPCVGNKIDDHMNSCELTLGITNFMEQYINMGGTYVVKMYLGSQTDNLKTYLKTIFQFVNTTKPKASRRESREIYLVCRNFLGRKKIGEDVQVKGAFSLKEGYY,not soluble
19,QDTSPDTLVVTANRFEQPRSTVLAPTTVVTRQDIDRWQSTSVNDVLRRLPGVDITQNGGSGQLSSIFIRGTNASHVLVLIDGVRLNLAGVSGSADLSQFPIALVQRVEYIRGPRSAVYGSDAIGGVVNIITTRDEPGTEISAGWGSNSYQNYDVSTQQQLGDKTRVTLLGDYAHTHGYDVVAYGNTGTQAQTDNDGFLSKTLYGALEHNFTDAWSGFVRGYGYDNRTNYDAYYSPGSPLLDTRKLYSQSWDAGLRYNGELIKSQLITSYSHSKDYNYDPHYGRYDSSATLDEMKQYTVQWANNVIVGHGSIGAGVDMQMQMTTPGTGYVEDGYDQRNTGIYLTGLQQVGDFTFEGAARSDDNSQFGRHGTWQTSAGWEFIEGYRFIASYGTSYKAPNLGQLYGFYGNPNLDPEKSKQWEGAFEGLTAGVNWRISGYRNDVSDLIDYDDHTLKYYNEGKARIKGVEATANFDTGPLTHTVSYDYVDARNAITDTPLLRRAKQQVKYQLDWQLYDFDMGMTMQYLGTRYDKDYSSYPYQTVKMGGVSLWDLAVAYPVTSHLTVRGKIANLFDKDYETVYGYQTAGREYTLSGSYTF,soluble
20,GPLGSLVNVIRRESGNPDLLELLMDLNCYTLEVTEGYLKKVNVTEVNGDNVLGPIHVITTVVSSLVRNGLLIQSSKFISKVLLTVESIVMSLPKDETMLGGIFWLSNLSRLPAFAANQKTLYEANGGDEKDKLTLIYLNDLENETLKVFDKIYSTWLVKFMKHASAHIEIFDMVLNEKLFKNSGDEKFAKLFTFLNEFDAVLCKFQVVDSMHTKIFNDTLKYLNVMLFNDLITKCPALNWKYGYEVDRNIERLVSWFEPRIEDVRPNLIQIIQAVKILQLKISNLNEFKLLFDFWYALNPAQIQAILLKYKPANKGEAGVPNEILNYLANVIKRENLSLPGKMEIMLSAQFDSAKNHLRYDTSAITQNSNTEGLATVSKIIKLDRK,soluble

# Source: the DeepSol protein solubility set
